Here are results for six molecules from patent publication US20140087995A1 (published 2014).

T1: human calcitonin receptor (human, UniProt P30988 25-474)
T1 sequence (looked up): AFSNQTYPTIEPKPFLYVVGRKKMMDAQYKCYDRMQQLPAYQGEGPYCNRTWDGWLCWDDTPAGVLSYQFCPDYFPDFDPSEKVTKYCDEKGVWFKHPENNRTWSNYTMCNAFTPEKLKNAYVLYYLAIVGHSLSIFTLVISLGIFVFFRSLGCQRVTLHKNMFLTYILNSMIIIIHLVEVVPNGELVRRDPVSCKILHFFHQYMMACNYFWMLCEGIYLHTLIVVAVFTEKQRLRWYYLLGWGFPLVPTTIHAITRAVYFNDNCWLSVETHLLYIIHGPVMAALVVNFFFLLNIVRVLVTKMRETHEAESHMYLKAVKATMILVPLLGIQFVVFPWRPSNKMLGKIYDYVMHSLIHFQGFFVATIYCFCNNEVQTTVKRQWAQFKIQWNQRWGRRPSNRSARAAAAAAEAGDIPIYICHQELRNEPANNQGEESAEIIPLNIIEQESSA

B1: N^ε1-[(4S)-4-carboxy-4-[[(4S)-4-carboxy-4-(19-carboxynonadecanoylamino)butanoyl]amino]butanoyl]-[Arg17,Pro21,Pro27,Pro31,Pro34,Arg35]-h-amylin (peptide)
peptide: K([γGlu-γGlu-C20 diacid])CNTATCATQRLANFLRHSSPNFGAIPSSTPVGPRTY-NH2
modifications: disulfide 2-7; N-terminus assumed
SMILES: CC[C@H](C)[C@H](NC(=O)[C@H](C)NC(=O)CNC(=O)[C@H](Cc1ccccc1)NC(=O)[C@H](CC(N)=O)NC(=O)[C@@H]1CCCN1C(=O)[C@H](CO)NC(=O)[C@H](CO)NC(=O)[C@H](Cc1c[nH]cn1)NC(=O)[C@H](CCCNC(=N)N)NC(=O)[C@H](CC(C)C)NC(=O)[C@H](Cc1ccccc1)NC(=O)[C@H](CC(N)=O)NC(=O)[C@H](C)NC(=O)[C@H](CC(C)C)NC(=O)[C@H](CCCNC(=N)N)NC(=O)[C@H](CCC(N)=O)NC(=O)[C@@H](NC(=O)[C@H](C)NC(=O)[C@@H]1CSSC[C@H](NC(=O)[C@@H](N)CCCCNC(=O)CC[C@H](NC(=O)CC[C@H](NC(=O)CCCCCCCCCCCCCCCCCCC(=O)O)C(=O)O)C(=O)O)C(=O)N[C@@H](CC(N)=O)C(=O)N[C@@H]([C@@H](C)O)C(=O)N[C@@H](C)C(=O)N[C@@H]([C@@H](C)O)C(=O)N1)[C@@H](C)O)C(=O)N1CCC[C@H]1C(=O)N[C@@H](CO)C(=O)N[C@@H](CO)C(=O)N[C@H](C(=O)N1CCC[C@H]1C(=O)N[C@H](C(=O)NCC(=O)N1CCC[C@H]1C(=O)N[C@@H](CCCNC(=N)N)C(=O)N[C@H](C(=O)N[C@@H](Cc1ccc(O)cc1)C(N)=O)[C@@H](C)O)C(C)C)[C@@H](C)O
B2: N^ε1-[(4S)-4-carboxy-4-[[(4S)-4-carboxy-4-(19-carboxynonadecanoylamino)butanoyl]amino]butanoyl]-[Glu14,Arg17,Pro21,Pro27,Pro34,Glu35,Pro37]-h-amylin (peptide)
peptide: K([γGlu-γGlu-C20 diacid])CNTATCATQRLAEFLRHSSPNFGAIPSSTNVGPETP-NH2
modifications: disulfide 2-7; N-terminus assumed
SMILES: CC[C@H](C)[C@H](NC(=O)[C@H](C)NC(=O)CNC(=O)[C@H](Cc1ccccc1)NC(=O)[C@H](CC(N)=O)NC(=O)[C@@H]1CCCN1C(=O)[C@H](CO)NC(=O)[C@H](CO)NC(=O)[C@H](Cc1c[nH]cn1)NC(=O)[C@H](CCCNC(=N)N)NC(=O)[C@H](CC(C)C)NC(=O)[C@H](Cc1ccccc1)NC(=O)[C@H](CCC(=O)O)NC(=O)[C@H](C)NC(=O)[C@H](CC(C)C)NC(=O)[C@H](CCCNC(=N)N)NC(=O)[C@H](CCC(N)=O)NC(=O)[C@@H](NC(=O)[C@H](C)NC(=O)[C@@H]1CSSC[C@H](NC(=O)[C@@H](N)CCCCNC(=O)CC[C@H](NC(=O)CC[C@H](NC(=O)CCCCCCCCCCCCCCCCCCC(=O)O)C(=O)O)C(=O)O)C(=O)N[C@@H](CC(N)=O)C(=O)N[C@@H]([C@@H](C)O)C(=O)N[C@@H](C)C(=O)N[C@@H]([C@@H](C)O)C(=O)N1)[C@@H](C)O)C(=O)N1CCC[C@H]1C(=O)N[C@@H](CO)C(=O)N[C@@H](CO)C(=O)N[C@H](C(=O)N[C@@H](CC(N)=O)C(=O)N[C@H](C(=O)NCC(=O)N1CCC[C@H]1C(=O)N[C@@H](CCC(=O)O)C(=O)N[C@H](C(=O)N1CCC[C@H]1C(N)=O)[C@@H](C)O)C(C)C)[C@@H](C)O
B3: N^ε1-[(4S)-4-carboxy-4-[[(4S)-4-carboxy-4-(19-carboxynonadecanoylamino)butanoyl]amino]butanoyl]-[Glu14,Arg17,Pro21,Pro27,His34,Glu35]-h-amylin (peptide)
peptide: K([γGlu-γGlu-C20 diacid])CNTATCATQRLAEFLRHSSPNFGAIPSSTNVGHETY-NH2
modifications: disulfide 2-7; N-terminus assumed
SMILES: CC[C@H](C)[C@H](NC(=O)[C@H](C)NC(=O)CNC(=O)[C@H](Cc1ccccc1)NC(=O)[C@H](CC(N)=O)NC(=O)[C@@H]1CCCN1C(=O)[C@H](CO)NC(=O)[C@H](CO)NC(=O)[C@H](Cc1c[nH]cn1)NC(=O)[C@H](CCCNC(=N)N)NC(=O)[C@H](CC(C)C)NC(=O)[C@H](Cc1ccccc1)NC(=O)[C@H](CCC(=O)O)NC(=O)[C@H](C)NC(=O)[C@H](CC(C)C)NC(=O)[C@H](CCCNC(=N)N)NC(=O)[C@H](CCC(N)=O)NC(=O)[C@@H](NC(=O)[C@H](C)NC(=O)[C@@H]1CSSC[C@H](NC(=O)[C@@H](N)CCCCNC(=O)CC[C@H](NC(=O)CC[C@H](NC(=O)CCCCCCCCCCCCCCCCCCC(=O)O)C(=O)O)C(=O)O)C(=O)N[C@@H](CC(N)=O)C(=O)N[C@@H]([C@@H](C)O)C(=O)N[C@@H](C)C(=O)N[C@@H]([C@@H](C)O)C(=O)N1)[C@@H](C)O)C(=O)N1CCC[C@H]1C(=O)N[C@@H](CO)C(=O)N[C@@H](CO)C(=O)N[C@H](C(=O)N[C@@H](CC(N)=O)C(=O)N[C@H](C(=O)NCC(=O)N[C@@H](Cc1c[nH]cn1)C(=O)N[C@@H](CCC(=O)O)C(=O)N[C@H](C(=O)N[C@@H](Cc1ccc(O)cc1)C(N)=O)[C@@H](C)O)C(C)C)[C@@H](C)O
B4: N^ε1-[(4S)-4-carboxy-4-[[(4S)-4-carboxy-4-(19-carboxynonadecanoylamino)butanoyl]amino]butanoyl]-[Glu14,Arg17,Pro21,Pro27,Pro34,Phe37]-h-amylin (peptide)
peptide: K([γGlu-γGlu-C20 diacid])CNTATCATQRLAEFLRHSSPNFGAIPSSTNVGPNTF-NH2
modifications: disulfide 2-7; N-terminus assumed
SMILES: CC[C@H](C)[C@H](NC(=O)[C@H](C)NC(=O)CNC(=O)[C@H](Cc1ccccc1)NC(=O)[C@H](CC(N)=O)NC(=O)[C@@H]1CCCN1C(=O)[C@H](CO)NC(=O)[C@H](CO)NC(=O)[C@H](Cc1c[nH]cn1)NC(=O)[C@H](CCCNC(=N)N)NC(=O)[C@H](CC(C)C)NC(=O)[C@H](Cc1ccccc1)NC(=O)[C@H](CCC(=O)O)NC(=O)[C@H](C)NC(=O)[C@H](CC(C)C)NC(=O)[C@H](CCCNC(=N)N)NC(=O)[C@H](CCC(N)=O)NC(=O)[C@@H](NC(=O)[C@H](C)NC(=O)[C@@H]1CSSC[C@H](NC(=O)[C@@H](N)CCCCNC(=O)CC[C@H](NC(=O)CC[C@H](NC(=O)CCCCCCCCCCCCCCCCCCC(=O)O)C(=O)O)C(=O)O)C(=O)N[C@@H](CC(N)=O)C(=O)N[C@@H]([C@@H](C)O)C(=O)N[C@@H](C)C(=O)N[C@@H]([C@@H](C)O)C(=O)N1)[C@@H](C)O)C(=O)N1CCC[C@H]1C(=O)N[C@@H](CO)C(=O)N[C@@H](CO)C(=O)N[C@H](C(=O)N[C@@H](CC(N)=O)C(=O)N[C@H](C(=O)NCC(=O)N1CCC[C@H]1C(=O)N[C@@H](CC(N)=O)C(=O)N[C@H](C(=O)N[C@@H](Cc1ccccc1)C(N)=O)[C@@H](C)O)C(C)C)[C@@H](C)O

Numbered stars: 1 amine (or outer) side, 2 acyl side, 3 side chain; on linkers, the order of the positions; unused ones are H or OH. Bridge positions count the residues as written; N and C are the ends. Side chains are listed from the residue outwards. Ends that are not written are not given here. * marks the point of attachment. C20 diacid = O=C(O)CCCCCCCCCCCCCCCCCCC(=O)*; γGlu = O=C(O)[C@H](CCC(=O)[*:2])N[*:1]

For this test, the target named is T1, human calcitonin receptor. As to the kind of experiment: cell-based or functional assay.
With B1, the “hCTR funct. EC50 (pM)” value is 8660 pM.
For B2 the value was 102 pM.
On to K([γGlu-γGlu-C20 diacid])CNTATCATQRLAEFLRHSSPNFGAIPSSTNVGPHTY-NH2 (disulfide 2-7 (inferred)), for which the “hCTR funct. EC50 (pM)” value turned out to be 2830 pM.
With B3, the “hCTR funct. EC50 (pM)” value stood at 7050 pM.
For B4 the value was 2140 pM; for K([γGlu-γGlu-C20 diacid])CNTATCATQRLADFLRHSSPNFGAIPSSTNVGPETY-NH2 (disulfide 2-7), 843 pM.
